# Test results from patent US20240101654A1 (NEURIMMUNE, published 2024).
# B1: NI-502.4P3 (antibody, V domains shown)
# VH: EVQLVQSGAEVKKPGESLKISCKVSGYDFSKYWIGWVRQMPGKGLEWMGLIYPGDSDTRYSPSLEGQVSISADKSISAAYLQFSSLKASDSAMYYCVRKGYSAYLGGWFDPWGQGTLVTVSS
# VL: DIQLTQSPDSLAASLGERVTINCRSSQNIFYNSNNKNFLAWYQQKAGQSPKLLIYWASTRESGVPDRFSGSGSGTDFTLTISGLQAGDVAVYFCQQYFTDAPTFGGGTKVEIK
# B2: NI-502.8H1 (antibody, V domains shown)
# VH: EVQLVESGGGLVQPGGSLRLSCAASGFTFSIYTMSWVRQAPGKGLEWVSAILSDGSTYYADSVEGRFTISRDNSKTTLYLQMNSLTAEDTAVYYCTKRVEGSFRGWGQGTLVTVSS
# VL: EIVMTQSPGTLSLSPGESATLSCRASQSVSTTYLAWYQQKPGQAPRLLIYGASSRATGIPDRFSGSGSGTDFTLTISRLEPEDFAVYYCQQYGGSRLITFGQGTRLEIK
# Target: AD-associated Tau in brain extracts of patients with AD (human, UniProt P10636-8 2-441, limits assumed, pathologically modified (sites not given))
# Test: cell-based or functional assay
# Chain of AD-associated Tau in brain extracts of patients with AD (P10636 other isoform, or with tags, fused parts or gaps limits assumed): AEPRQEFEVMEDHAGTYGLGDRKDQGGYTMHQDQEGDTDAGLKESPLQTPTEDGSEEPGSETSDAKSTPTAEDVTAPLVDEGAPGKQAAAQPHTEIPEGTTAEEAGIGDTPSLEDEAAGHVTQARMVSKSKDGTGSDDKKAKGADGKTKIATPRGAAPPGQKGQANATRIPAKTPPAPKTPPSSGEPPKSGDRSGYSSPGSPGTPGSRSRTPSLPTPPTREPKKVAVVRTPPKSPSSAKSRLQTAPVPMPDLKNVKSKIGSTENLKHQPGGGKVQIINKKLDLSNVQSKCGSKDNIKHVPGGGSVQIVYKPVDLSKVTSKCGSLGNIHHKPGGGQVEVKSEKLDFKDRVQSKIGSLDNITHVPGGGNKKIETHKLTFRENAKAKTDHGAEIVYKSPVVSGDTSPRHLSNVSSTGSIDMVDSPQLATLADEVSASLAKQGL
row,Binder,IC50 of Tau aggregation (FRET) in HEK293T Tau biosensor cells seeded with immunodepleted AD brain homogenate [µg/mL]
1,B1,6.5
2,B2,7.1
